Measurements published in paper doi:10.1101/2025.01.28.635281 (bioRxiv, 2025).

Target: T1, Bacillus subtilis Sfp (Surfactin synthetase activating enzyme, 4'-phosphopantetheinyl transferase) (Bacillus subtilis, UniProt P39135 1-224)
T1 sequence (looked up): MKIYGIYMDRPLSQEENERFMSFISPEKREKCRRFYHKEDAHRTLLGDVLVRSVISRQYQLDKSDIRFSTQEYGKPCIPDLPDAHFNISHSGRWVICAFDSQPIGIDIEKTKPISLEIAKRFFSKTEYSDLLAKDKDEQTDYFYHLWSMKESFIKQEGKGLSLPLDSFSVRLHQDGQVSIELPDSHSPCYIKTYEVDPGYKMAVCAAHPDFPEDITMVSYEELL
Assay: NMR titration

B1: S36A mutant of E. coli acyl carrier protein (natural protein)
chain: STIEERVKKIIGEQLGVKQEEVTNNASFVEDLGADALDTVELVMALEEEFDTEIPDEEAEKITTVQAAIDYINGHQA
B1: binds.
